Reference: patent EP0910659B1, “ANTIBODIES AGAINST A COMPLEX OF CD4 AND A CHEMOKINE RECEPTOR DOMAIN, AND THEIR USE AGAINST HIV INFECTIONS” (United Biomedical, Inc., priority 1996, dated 1997)

Tests used:
[1] = molecular target: CD4 on the surface of CD4-expressing cells (host cell antigen complex comprising CD4) (human); assay: indirect immunofluorescence, HPB-ALL cells pre-incubated with gp120 (competitor)
[2] = molecular target: CD4 on the surface of CD4-expressing cells (host cell antigen complex comprising CD4) (human); assay: HPB-ALL cells, biotinylated B4 0.71 µg/mL, no competitor
[3] = molecular target: recombinant soluble CD4 (rsCD4) (human); assay: rsCD4 ELISA
[4] = molecular target: CD4 on the surface of CD4-expressing cells (host cell antigen complex comprising CD4) (human); assay: HPB-ALL cells, biotinylated B4 1:1000 + FITC-avidin, no competitor
[5] = molecular target: CD4 on the surface of CD4-expressing cells (host cell antigen complex comprising CD4) (human); assay: SUP-T cells, biotinylated B4, no competitor
[6] = molecular target: CD4 on the surface of CD4-expressing cells (host cell antigen complex comprising CD4) (human); assay: cell-based or functional assay
[7] = molecular target: rsCD4 preincubated with CC-CKR5 domain 3 peptide p2047a (human) (UniProt P51681); assay: ratio of the rsCD4 IC50 values of the two ELISA inhibition assays
rsCD4 preincubated with CC-CKR5 domain 3 peptide p2047a (human), sequence (P51681 168-199, form in doubt): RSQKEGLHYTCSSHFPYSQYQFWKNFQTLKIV

[8] = molecular target: CD4 on the surface of CD4-expressing cells (host cell antigen complex comprising CD4) (human); assay: indirect immunofluorescence, HPB-ALL cells
[9] = molecular target: recombinant soluble CD4 (rsCD4) (human); assay: rsCD4 ELISA, purified B4 2 µg/mL, no competitor
[10] = molecular target: rsCD4 preincubated with CC-CKR3 domain 4 peptide p2082a (human) (UniProt P51677); assay: ELISA, rsCD4 0.25 µg/mL preincubated with peptide, B4 0.1 µg/mL; against rsCD4 alone
[11] = molecular target: rsCD4 preincubated with CC-CKR5 domain 3 peptide p2047a (human) (UniProt P51681); assay: as above
[12] = molecular target: rsCD4 preincubated with CC-CKR2b domain 3 peptide p2088a (human) (UniProt P41597); assay: as above
rsCD4 preincubated with CC-CKR2b domain 3 peptide p2088a (human), sequence (P41597 182-207, form in doubt): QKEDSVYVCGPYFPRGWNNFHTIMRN

[13] = molecular target: rsCD4 preincubated with CC-CKR2b domain 2 peptide p2087a (human) (UniProt P41597); assay: as above
[14] = molecular target: CD4 on the surface of CD4-expressing cells (host cell antigen complex comprising CD4) (human); assay: HPB-ALL cells pre-incubated with MAb 10 µg/mL; competitor biotinylated B4
[15] = molecular target: recombinant soluble CD4 (rsCD4) (human); assay: direct ELISA, rsCD4 wells pretreated with p1624a; B4-HRP 50 µg/mL, PBS instead of competitor
[16] = molecular target: recombinant soluble CD4 (rsCD4) (human); assay: ELISA, rsCD4-coated wells
[17] = molecular target: recombinant soluble CD4 (rsCD4) (human); assay: competition ELISA, rsCD4 wells pretreated with p1624a; MAb 50 µg/mL; competitor B4-HRP 50 µg/mL
[18] = molecular target: CD4 on the surface of CD4-expressing cells (host cell antigen complex comprising CD4) (human); assay: HPB-ALL cells pre-incubated with MAb 50 µg/mL, then gp120-FITC (competitor)
[19] = molecular target: rsCD4 preincubated with CC-CKR5 domain 3 peptide p2047a (human) (UniProt P51681); assay: ELISA, rsCD4/CC-CKR5-D3 coated wells

monoclonal antibody B4 gave a % of cells reactive after prior binding of gp120 [1] greater than 90%, a % Positive cells [2] greater than 95% and an A492 nm reactivity to rsCD4 [3] of 1.42 A492. For the same substance, the % Positive cells [4] was greater than 95%, the Intensity of staining [4] was 2 and the positive rate [5] was 95%. The 50% Inhbt., HIV-1 primary isolate 23135, MT-2 Microplaque Neutralization Assay [6] was 0.21 µg/mL, the 50% Inhbt., HIV-1 primary isolate BR014, MT-2 Microplaque Neutralization Assay [6] was 0.19 µg/mL and the 50% end point for neutralization of HIV-1 primary isolate (23135) [6] was 0.21 µg/mL. It also gave a 90% Inhbt., HIV-1 primary isolate 23135, MT-2 Microplaque Neutralization Assay [6] of 1.54 µg/mL, a 90% Inhbt., HIV-1 primary isolate BR014, MT-2 Microplaque Neutralization Assay [6] of 1.63 µg/mL and an HIV-1 DH-12 (chimp PBL-grown), PBMC Infection Reduction Assay [6] of 3 logs killed. It also gave an HIV-1 DH-12, 50% Inhib, MT-2 Microplaque Assay [6] of 0.33 µg/mL, an HIV-1 DH-12, 90% Inhib, MT-2 Microplaque Assay [6] of 2.1 µg/mL and an HIV-2 287, PBMC Infectivity Reduction Assay with MAb B4 at 10 µg/mL [6] of 1.5 logs killed. For the same substance, the HIV-2 ROD, 50%, MT2 Microplaque Neutralization Assay [6] was 0.7 µg/mL, the HIV-2 ROD, 90%, MT2 Microplaque Neutralization Assay [6] was 8.5 µg/mL and the SHIV 89.6, 50%, p27 Antigen Neutralization Assay [6] was 0.088 µg/mL. For the same substance, the SHIV IIIB, 50%, p27 Antigen Neutralization Assay [6] was 0.679 µg/mL, the SIV239, 50%, p27 Antigen Neutralization Assay [6] was 1.3 µg/mL and the SIV251 (huPBMC), 80%, p27 Antigen Neutralization Assay [6] was 1 µg/mL. The SIV251, 50%, p27 Antigen Neutralization Assay [6] was 2 µg/mL, the fold improvement of affinity over MAb B4 for rsCD4 alone [7] was 15 fold and the % of HPB-ALL cells reactive [8] was greater than 90%. For the same substance, the A492 nm [9] was 0.679 A492, the degree of enhancement of MAb B4-rsCD4 binding (grade 0 to 8) [10] was 8 + and the degree of enhancement of MAb B4-rsCD4 binding (grade 0 to 8) [11] was 5 +. For the same substance, the degree of enhancement of MAb B4-rsCD4 binding (grade 0 to 8) [12] was > 4 +, the degree of enhancement of MAb B4-rsCD4 binding (grade 0 to 8) [13] was > 4 + and the % Positive cells (biotinylated B4 staining) [14] was 0%. The Intensity of staining (biotinylated B4) [14] was 0, the A492 nm [15] was 1.66 A492 and the endpoint binding concentration (OD492nm reading of 1.0) [16] was 2 µg/mL. The % Inhibition [17] was 80%, the A492 nm (B4-HRP signal) [17] was 0.338 A492 and the % of cells stained by gp120-FITC after prior binding with MAb [18] was 0%. For the same substance, the endpoint binding concentration (OD492nm reading of 1.0) [19] was 0.1 µg/mL.
